Measurements published in article PMC8837033.

Target: Shp-2 (UniProt P35235)
Experiment: anti-FLAG co-IP, Shp-2 immunoblot
Settings: reference: wild type, 1 mM pervanadate; sites Y447,Y470

Substance: Siglec-8 (from UniProt Q9NYZ4) Y447F+Y470F, 1 mM pervanadate
- binding against the reference: lost
